Molecular target: Ran (Homo sapiens, UniProt P62826)
Test: ITC

Binder | Kd [µM]
VGSWECPVCCVSNKAEDSRCVSCTSEKPG (GDP-bound Ran) [Nup153 ZnF3 ZnF3] | 6.6
AGSSWQCDTCLLQNKVTDNKCIACQAAKL (GDP-bound Ran) [Nup153 ZnF1 ZnF1] | 6.5
Nup153 ZnF region (protein, GDP-bound Ran) AGSSWQCDTCLLQNKVTDNKCIACQAAKLPLKETAKQTGIGTPSKSDKPASTSGTGFGDKFKPAIGTWDCDTCLVQNKPEAVKCVACETPKPGTGVKRALPLTVASESPVTASSSTTVTTGTLGFGDKFKRPVGSWECPVCCVSNKAEDSRCVSCTSEKPGLVSASSSNSVPVSLPSGGCLGLDKFKKPEGSWDCEVCLVQNKADSTKCIACESAKPGTKSEFKGFGT | 1
Nup153 ZnF region (protein) AGSSWQCDTCLLQNKVTDNKCIACQAAKLPLKETAKQTGIGTPSKSDKPASTSGTGFGDKFKPAIGTWDCDTCLVQNKPEAVKCVACETPKPGTGVKRALPLTVASESPVTASSSTTVTTGTLGFGDKFKRPVGSWECPVCCVSNKAEDSRCVSCTSEKPGLVSASSSNSVPVSLPSGGCLGLDKFKKPEGSWDCEVCLVQNKADSTKCIACESAKPGTKSEFKGFGT | 20

— article PMC2716403 (2009)
